Data on 4 substances can be found in patent publication US12344648B2.

In assay [1] the target is IL-15 receptors on CD8+ T cells and NK cells of cynomolgus monkey whole blood (cynomolgus monkey).
Assay [2] has the same target. The source holds these as a separate data set.

In assay [1], IL-15_L26[AzK_PEG30] (ligand) had a fold change of EC50 for pSTAT5 induction against native IL-15, CD8+ T cells, cynomolgus monkey whole blood of 164 fold and a fold change of EC50 for pSTAT5 induction against native IL-15, NK cells, cynomolgus monkey whole blood of 115 fold. Further, in assay [2], the EC50 of STAT5 signaling (pSTAT5), CD8+ T cells, cynomolgus monkey whole blood was 1040 ng/ml and the EC50 of STAT5 signaling (pSTAT5), NK cells, cynomolgus monkey whole blood turned out to be 219 ng/ml.

In the case of IL-15_N78[AzK_PEG30] (ligand), in assay [2], the EC50 of STAT5 signaling (pSTAT5), CD8+ T cells, cynomolgus monkey whole blood stood at 15.7 ng/ml and the EC50 of STAT5 signaling (pSTAT5), NK cells, cynomolgus monkey whole blood was found to be 3.9 ng/ml.

IL-15_E54[AzK_PEG30] (ligand): in assay [2], the EC50 of STAT5 signaling (pSTAT5), CD8+ T cells, cynomolgus monkey whole blood was found to be 9.2 ng/ml and the EC50 of STAT5 signaling (pSTAT5), NK cells, cynomolgus monkey whole blood was found to be 1.8 ng/ml.

Consider “native IL-15 (from UniProt P40933) (ligand)”, for which, in assay [2], the EC50 of STAT5 signaling (pSTAT5), CD8+ T cells, cynomolgus monkey whole blood is 6.3 ng/ml and the EC50 of STAT5 signaling (pSTAT5), NK cells, cynomolgus monkey whole blood was determined as 1.9 ng/ml.
